Reference: PMC8115694, “Distinct axial and lateral interactions within homologous filaments dictate the signaling specificity and order of the AIM2-ASC inflammasome” (Nature Communications, 2021)

How the values were obtained:
[1] = target: the molecule itself; assay: confocal fluorescence microscopy of fluor-labelled recombinant filaments; two differentially labelled (Alexa488, Dylight550) MBP-tagged PYD populations mixed at 1:1 ratio (1 uM each), polymerisation triggered by cleaving MBP with TEVp
[2] = target: the molecule itself; assay: cryo-EM structure; helical reconstruction of the untagged AIM2 (1-117) filament; 2.75 uM protein cleaved for 30 min with 6 uM TEVp

B1: AIM2^PYD (residues 1-94) S94C, fluorophore-labelled (domain or fragment, human, UniProt O14862 1-94, looked up)
chain: MESKYKEILLLTGLDNITDEELDRFKFFLSDEFNIATGKLHTANRIQVATLMIQNAGAVSAVMKTIRIFQKLNYMLLAKRLQEEKEKVDKQYKC
modifications: fluorophore label (Alexa488 or Dylight550; FRET donor or acceptor); S94C for fluorophore labeling
notes: AIM2, human, pyrin domain, residues 1-94; Polymerisation is triggered by cleaving MBP with TEVp; the protein stands as nascent monomer or as preassembled filament; also called MBP-AIM2^PYD; source: MBP cleaved with TEVp in the assay; not shown: MBP, N-terminal, cleaved
B1: binds [1].

B2: AIM2^PYD filament construct with ~20 a.a. of the unstructured linker (residues 1-117), untagged (domain or fragment, human, UniProt O14862 1-117, looked up)
chain: MESKYKEILLLTGLDNITDEELDRFKFFLSDEFNIATGKLHTANRIQVATLMIQNAGAVSAVMKTIRIFQKLNYMLLAKRLQEEKEKVDKQYKSVTKPKPLSQAEMSPAASAAIRND
notes: AIM2 (absent in melanoma 2), human, residues 1-117: PYD plus ~20 a.a. of the unstructured linker; Helical filament; 2.75 uM protein cleaved for 30 min with 6 uM TEVp before freezing; also called AIM2^IRND; source: MBP cleaved with TEVp; not shown: MBP, N-terminal, cleaved
B2: binds [2].
